Measured values from patent US20020173625A1.

Target: grass pollen allergic patients' IgE antibodies
Experiment: ELISA competition; sera of 20 patients preadsorbed with 10 ug/ml rPhl p 6; competitor: plate-bound rPhl p 6

% inhibition of IgE binding: 80%
B1: recombinant Phl p 6 (protein, timothy grass, UniProt P43215 23-132, looked up)
chain: GKATTEEQKLIEDVNASFRAAMATTANVPPADKYKTFEAAFTVSSKRNLADAVSKAPQLVPKLDEVYNAAYNAADHAAPEDKYEAFVLHFSEALRIIAGTPEVHAVKPGA
